{"source": "patent US20040002128", "key": {"[1]": {"biological_target": "sensor C8, polyhistidine-tagged"}, "[2]": {"biological_target": "sensor C8A, polyhistidine-tagged"}, "AC-DEVD-CHO": {"biological_target": "T1, AC-DEVD-CHO", "T1 chain": "DEVD"}, "[3]": {"biological_target": "T2, CFP-YFP fusion protein, polyhistidine-tagged (bacterial version, no caspase substrate sequence)", "T2 chain": "SGLRSRAQASNS"}, "[4]": {"biological_target": "T3, sensor A, polyhistidine-tagged recombinant FRET probe (bacterial version) (not fully specified)", "T3 chain": "SGLRSGGDEVDGGSNS"}, "[5]": {"biological_target": "T4, sensor B, polyhistidine-tagged recombinant FRET probe (bacterial version) (not fully specified)", "T4 chain": "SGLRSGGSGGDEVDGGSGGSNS"}}, "data": [{"protein": "caspase-8 (protein) SESQTLDKVYQMKSKPRGYCLIINNHNFAKAREKVPKLHSIRDRNGTHLDAGALTTTFEELHFEIKPHDDCTVEQIYEILKIYQLMDHSNMDCFICCILSHGDKGIIYGTDGQEAPIYELTSQFTGLKCPSLAGKPKVFFIQACQGDNYQKGIPVETDSEEQPYLEMDLSSPQTRYIPDEADFLLGMATVNNCVSYRNPAEGTWYIQSLCQSLRERCPRGDDILTILTEVNYEVSNKDDKKNMGKQMPQPTFTLRKKLVFPSD", "values": [{"measurement": "caspase-8 concentration that reduces the FRET effect by 50% (sensor 22.45 nM, one hour)", "setting": "[1]", "value": "about 5-fold more caspase-8 (3.4 nM) was required to produce the same FRET reduction for sensor C8"}, {"measurement": "caspase-8 needed for 50% FRET reduction, against sensor C8A", "setting": "[1]", "value": "about 5-fold more caspase-8 (3.4 nM) was required to produce the same FRET reduction for sensor C8"}, {"measurement": "cleavage, Western blot", "setting": "[1]", "value": "both sensor C8 and C8A could be cleaved by caspase-8 to release a CFP and a YFP molecule"}, {"measurement": "fraction of the sensor cleaved, band intensity on Western blot, caspase-8 216 nM, one hour", "setting": "[1]", "value": "only 58% of the sensor C8 protein was cleaved under the same condition"}, {"measurement": "caspase-8 concentration that reduces the FRET effect by 50% (sensor 22.45 nM, one hour)", "setting": "[2]", "value": "about 0.71 nM of caspase-8 was needed to reduce 50% of the FRET effect for sensor C8A"}, {"measurement": "cleavage, Western blot", "setting": "[2]", "value": "both sensor C8 and C8A could be cleaved by caspase-8 to release a CFP and a YFP molecule"}, {"measurement": "fraction of the sensor cleaved, band intensity on Western blot, caspase-8 216 nM, one hour", "setting": "[2]", "value": "95% of the sensor C8A protein was cleaved after incubation with caspase-8 (216 nM) for one hour"}]}, {"protein": "caspase-3 (protein) SGISLDNSYKMDYPEMGLCIIINNKNFHKSTGMTSRSGTDVDAANLRETFRNLKYEVRNKNDLTREEIVELMRDVSKEDHSKRSSFVCVLLSHGEEGIIFGTNGPVDLKKITNFFRGDRCRSLTGKPKLFIIQACRGTELDCGIETDSGVDDDMACHKIPVEADFLYAYSTAPGYYSWRNSKDGSWFIQSLCAMLKQYADKLEFMHILTRVNRKVATEFESFSFDATFHAKKQIPCIVSMLTKELYFYH", "values": [{"measurement": "cleavage of sensor A by caspase-3, Western blot", "setting": "AC-DEVD-CHO", "value": "In the presence of caspase-3 inhibitor (AC-DEVD-CHO), no FRET probe (sensor A) was cleaved"}, {"measurement": "cleavage, Western blot", "setting": "[3]", "value": "no cleavage was seen for CFP-YFP fusion protein under the same condition"}, {"measurement": "emission spectrum after caspase-3", "setting": "[3]", "value": "no change for the emission spectrum was observed from the CFP-YFP fusion protein which lacks the substrate sequence"}, {"measurement": "cleavage, Western blot", "setting": "[4]", "value": "caspase-3 can cleave almost all the sensor A and sensor B protein"}, {"measurement": "decrease of the emission ratio of YFP/CFP", "setting": "[4]", "value": "decreased by 4-5 fold"}, {"measurement": "dosage-dependent caspase-3 cleavage assay, normalized emission ratio (YFP/CFP)", "setting": "[4]", "value": "both FRET probes were highly sensitive to caspase-3, although sensor A appeared to be slightly more sensitive than sensor B"}, {"measurement": "emission ratio of YFP/CFP before and after caspase-3", "setting": "[4]", "value": "from 3.02 to 0.59 for sensor A"}, {"measurement": "cleavage, Western blot", "setting": "[5]", "value": "caspase-3 can cleave almost all the sensor A and sensor B protein"}, {"measurement": "decrease of the emission ratio of YFP/CFP", "setting": "[5]", "value": "decreased by 4-5 fold"}, {"measurement": "dosage-dependent caspase-3 cleavage assay, normalized emission ratio (YFP/CFP)", "setting": "[5]", "value": "both FRET probes were highly sensitive to caspase-3, although sensor A appeared to be slightly more sensitive than sensor B"}, {"measurement": "emission ratio of YFP/CFP before and after caspase-3", "setting": "[5]", "value": "from 2.76 to 0.59 for sensor B"}]}]}
